Several values for one entry are separate records, joined by “and”; a condition that tells them apart may be missing. Equal values may be shown once.
What was measured:
[1] = Percent Pt released versus pH over time in citrate PBS; format: physicochemical; settings: 37° C.
Description: A stock solution of citrate PBS that was 10 mM in citrate, 20 mM in phosphate, and 100 mM in NaCl was prepared and split into bottles which were then adjusted to the desired pH. The bottles were warmed to 37° C. in an oven and poly(HPMA)-GFLG-Ama=Pt(NH3)2, N,O-chelate, ˜20 kDa, was added to give a concentration of approximately 2 mg of polymer platinum conjugate per mL buffer. The mixtures were well mixed to give colorless solutions. At the indicated times, three approximately 2.5 mL aliquots were removed from the solution at each pH and transferred to previously washed YM-3 ultracentrifuge devices (Amicon) and spun at 5000 RCF and 37° C. for 50 min. Once all samples for all time points have been collected and prepared, the filtrates and stock solutions are analyzed against Pt standards (0–10 ppm) by ICP-OES at the platinum emission line of 214.42 nm. For each time point and at each pH, three samples were prepared and analyzed.

[2] = Platinum release from PBS; format: physicochemical; settings: 37° C.
Description: The percent of small platinum species released over time was measured by dissolving about 30 mg of the polymer-platinum conjugate in 15 mL of phosphate buffered saline (10 mM phosphate, 123 mM Cl^−) and incubating the solution at 37° C. in a water bath. At indicated times, 2.0 mL aliquots were transferred to a centrifugal filter with a 3 kDa nominal molecular weight cutoff (Centricon YM-3 from Millipore) and spun until >1.5 mL of filtrate had accumulated. The timed filtrates and the original solution were analyzed for platinum by ICP-OES. The percent of small Pt species released was determined using the formula: ((ppm Pt in filtrate)/(ppm Pt in stock solution))×100.

[3] = Single-dose IV maximum tolerated dose study; format: in vivo; settings: mice, highest dose with no drug-induced deaths
Source text: For these studies, the MTD was defined as the highest dose evaluated in which no mouse deaths resulted from drug-induced toxicity.

poly(HPMA)-GFLG-Ama=Pt(NH3)2, N,O—Pt chelate [Example 4]
percent Pt released ([1]; pH 3.4, citrate PBS, 1 h): 2.0% | percent Pt released ([1]; pH 3.4, citrate PBS, 2 h): 4.2 ± 0.1% | percent Pt released ([1]; pH 3.4, citrate PBS, 4 h): 6.6% | percent Pt released ([1]; pH 3.4, citrate PBS, 8 h, 100% N,O-chelate, approx. 20 kDa): 12% and 12.0 ± 0.1% | percent Pt released ([1]; pH 3.4, citrate PBS, 24 h, 100% N,O-chelate, approx. 20 kDa): 30% and 29.1 ± 3.9% | percent Pt released ([1]; pH 4.4, citrate PBS, 1 h): 0.9 ± 0.1% | percent Pt released ([1]; pH 4.4, citrate PBS, 2 h): 1.9% | percent Pt released ([1]; pH 4.4, citrate PBS, 4 h): 3.3 ± 0.4% | percent Pt released ([1]; pH 4.4, citrate PBS, 8 h): 5.1 ± 1.2% | percent Pt released ([1]; pH 4.4, citrate PBS, 24 h): 17.0 ± 3.6% | percent Pt released ([1]; pH 5.4, citrate PBS, 1 h): 0.5% | percent Pt released ([1]; pH 5.4, citrate PBS, 2 h): 0.9 ± 0.08% | percent Pt released ([1]; pH 5.4, citrate PBS, 4 h): 1.4 ± 0.2% | percent Pt released ([1]; pH 5.4, citrate PBS, 8 h): 2.6 ± 0.4% | percent Pt released ([1]; pH 5.4, citrate PBS, 24 h): 7.3% | percent Pt released ([1]; pH 6.4, citrate PBS, 1 h): 0.4% | percent Pt released ([1]; pH 6.4, citrate PBS, 2 h): 0.7 ± 0.07% | percent Pt released ([1]; pH 6.4, citrate PBS, 4 h): 0.9 ± 0.06% | percent Pt released ([1]; pH 6.4, citrate PBS, 8 h): 1.3 ± 0.1% | percent Pt released ([1]; pH 6.4, citrate PBS, 24 h): 2.7 ± 0.1% | percent Pt released ([1]; pH 7.4, citrate PBS, 1 h): 0.36 ± 0.01% | percent Pt released ([1]; pH 7.4, citrate PBS, 2 h): 0.5 ± 0.07% | percent Pt released ([1]; pH 7.4, citrate PBS, 4 h): 0.7 ± 0.04% | percent Pt released ([1]; pH 7.4, citrate PBS, 8 h): 0.9 ± 0.02% | percent Pt released ([1]; pH 7.4, citrate PBS, 24 h): 1.6 ± 0.0% | percent Pt released ([1]; pH 8.2, citrate PBS, 1 h): 0.39 ± 0.0% | percent Pt released ([1]; pH 8.2, citrate PBS, 2 h): 0.7 ± 0.08% | percent Pt released ([1]; pH 8.2, citrate PBS, 4 h): 0.7 ± 0.04% | percent Pt released ([1]; pH 8.2, citrate PBS, 8 h): 0.8 ± 0.16% | percent Pt released ([1]; pH 8.2, citrate PBS, 24 h): 1.8 ± 0.02% | Pt release in PBS ([2]; 3 hours): 0.6% | Pt release in PBS ([2]; 24 hours): 2.0% | maximum tolerated dose (MTD) [3]: 400 mg PVkg

From patent US7166733B2, “O,O'-Amidomalonate and N,O-Amidomalonate platinum complexes” (priority 2000, dated 2007)
